# Measured values from patent publication US20150232539.
# Key:
# [1] = molecular target: HuD N-terminal fragment (1-117) in which the 8 N and D residues in the 36-amino acid flexible region were mutated to Q and E (UniProt P26378)
# [2] = molecular target: in vitro isoaspartyl-converted recombinant HuD N-terminal fragment (amino acids 1-117, wildtype) (UniProt P26378)
# [3] = test system: synapsin (isoaspartyl-converted, positive control)
# [4] = molecular target: HuD RRM1 lacking the N-terminal 36 amino acids (37-117 aa) (UniProt P26378)
# HuD RRM1 lacking the N-terminal 36 amino acids (37-117 aa), sequence (P26378 37-117): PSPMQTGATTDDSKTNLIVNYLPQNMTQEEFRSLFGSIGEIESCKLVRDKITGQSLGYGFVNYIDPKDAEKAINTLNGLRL
# [5] = molecular target: native recombinant HuD N-terminal fragment (amino acids 1-117, wildtype, day 0, not converted) (UniProt P26378)
# native recombinant HuD N-terminal fragment (amino acids 1-117, wildtype, day 0, not converted), sequence (P26378 other isoform, or with tags, fused parts or gaps): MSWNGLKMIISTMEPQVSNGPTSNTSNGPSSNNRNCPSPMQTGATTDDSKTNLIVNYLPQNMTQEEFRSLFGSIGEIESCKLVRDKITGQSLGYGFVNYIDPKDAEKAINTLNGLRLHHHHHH
# in vitro isoaspartyl-converted recombinant HuD N-terminal fragment (amino acids 1-117, wildtype), sequence (P26378 whole entry, looked up, the tested form may be a part): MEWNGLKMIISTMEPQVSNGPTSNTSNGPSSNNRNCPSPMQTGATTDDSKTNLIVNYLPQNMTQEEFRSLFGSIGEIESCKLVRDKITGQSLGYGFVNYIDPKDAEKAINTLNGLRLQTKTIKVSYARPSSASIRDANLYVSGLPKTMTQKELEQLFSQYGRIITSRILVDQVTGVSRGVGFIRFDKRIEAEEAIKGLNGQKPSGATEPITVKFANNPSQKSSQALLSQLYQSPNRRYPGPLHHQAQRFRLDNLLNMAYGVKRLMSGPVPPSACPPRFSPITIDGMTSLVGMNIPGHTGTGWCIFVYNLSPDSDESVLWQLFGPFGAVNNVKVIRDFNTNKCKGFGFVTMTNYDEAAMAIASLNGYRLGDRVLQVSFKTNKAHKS
# HuD N-terminal fragment (1-117) in which the 8 N and D residues in the 36-amino acid flexible region were mutated to Q and E, sequence (P26378 other isoform, or with tags, fused parts or gaps, change not shown): as the sequence (P26378 other isoform, or with tags, fused parts or gaps) above
substance,measurement,setting,value
recombinant rat protein-L-isoaspartyl methyltransferase (PIMT),on-blot methylation with [3H]-AdoMet by PIMT,[1],Only the Day 3 and Day 7 samples from the original 117 amino acid fragment show above background labeling
same,PIMT-catalyzed [3H]-methyl incorporation from [3H]-AdoMet (autoradiography),[2],followed by a strong increase in PIMT-mediated methylation over the seven day incubation
same,PIMT-catalyzed [3H]-methyl incorporation from [3H]-AdoMet (autoradiography),[3],Isoaspartyl-converted synapsin and HuD were visualized by methylation with [3H]-AdoMet by PIMT
same,on-blot methylation with [3H]-AdoMet by PIMT,[4],the RRM1 domain alone shows no signal above background when incubated under isoaspartylation conditions and then subjected to PIMT modification
same,PIMT-catalyzed [3H]-methyl incorporation from [3H]-AdoMet (autoradiography),[5],HuD exhibited no reactivity at Day 0
